Results taken from the supplement of paper PMC9170038.

Tested on: MS2 coat protein
Test: apparent KD of MS2 coat protein; designed switch direction (-1 OFF switch, 1 ON switch): -1; higher = weaker reporter binding
In short: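 SNAP-549-labelled MS2 coat protein was titrated, doubling from 0.7 or 1.5 nM to 3 µM, over designed RNA switches transcribed on Illumina chips by stalled E. coli RNA polymerase. Runs were done without input, with 200 uM small-molecule ligand, or with an oligonucleotide input. Apparent KD is the per-design median over clusters of curve-fitted normalised fluorescence.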

[1] = input ligand: microRNA oligo, concentration not stated
[2] = Eterna round: R95, input ligand: FMN 200 uM
[3] = Eterna round: R95, input ligand: microRNA oligo, concentration not stated
[4] = Eterna round: R95, input ligand: none

| Sequence | apparent KD of MS2 coat protein (input ligand: FMN 200 uM) [µM] | apparent KD of MS2 coat protein [1] [µM] | apparent KD of MS2 coat protein (input ligand: none) [µM] | apparent KD of MS2 coat protein [2] [µM] | apparent KD of MS2 coat protein [3] [µM] | apparent KD of MS2 coat protein [4] [µM] |
| --- | --- | --- | --- | --- | --- | --- |
| AAGCGCGAGGCAGGAUAUGCAGAGCGGGUGGCCCGUGCAGAAAAUAACAUGAGGAUCACCCAUGUGCAGAAGGGCCGGGUGACC [Anataredra] (Eterna round: R96, puzzle: Exclusion NG 2) | 0.0605 | 0.0361 | 0.0729 | – | – | – |
| GCCAGAGCAGGAUAUUCAGUAUCACACAUGAGGAUCACCCAUGUCCACGGAAACGUGGAGGGAGAAGGGCUCUGGC [Mat - Exclusion 5 - Eli mod - D96] (puzzle: Exclusion 5) | – | – | – | 0.0356 | 0.126 | 0.157 |
| CUGGUCCGAGGAUAUAUUAAGUGAUACAUGAGGAUCACCCAUGUAAUUUAAUGGAAGUAAAUAGAAGGCGGACUAG [Mat - Exclusion 5 - JL mod - D50] (puzzle: Exclusion 5) | – | – | – | 0.0798 | 0.053 | 0.0805 |
| GGCACACAUGAGGAUCACCCAUGUGAGGAUAUGCUGCGAUCGUCGAUAGACGAUAGCAGUAGAAGGCACAUGCC [Mat - Exclusion 1 - Eli Mod - D7] (Eterna round: R97, puzzle: Exclusion 1) | 0.0259 | – | 0.0191 | – | – | – |
| ACAUGAGGAUCACCCAUGUGAAAAGAAUGGCUGACACAGAGAUAGGAUAUGUGUGCAUAUCUAACACAGAAGGGUCAUGACUGG [Deportation 80 - Jieux - Exclusion NG 3] (Eterna round: R96, puzzle: Exclusion NG 3) | 0.0416 | 0.0342 | 0.0401 | – | – | – |
| UCGCUCCGUGUAGGAUAUCGCCGUUCUAUUCGGCGAGAAGGACAUGAGGAUCACCCAUGUAUGUUAUUAUCACGCGUGGCGCAC [Design 57] (Eterna round: R96, puzzle: Exclusion NG 1) | 0.0215 | 0.0139 | 0.0196 | – | – | – |
| GUCAGCUCGUCAGGAUAUAUAUACAUGAGGAUCACCCAUGUAAGAUCAGGCUUCGGCCAAUGUAUAUAGAAGGGACGAGCUGAU [ENG2/11-B2] (Eterna round: R96, puzzle: Exclusion NG 2) | 0.721 | 0.458 | 0.81 | – | – | – |
| AGCUGUGGCCGAGGAUAUACACAUGAGGAUCACCCAUGUAGGCGCGGAAACGCGCUAAAAGGGUUGUAGAAGGCGGUCUCAGCA [Eli eng2 - 054] (Eterna round: R96, puzzle: Exclusion NG 2) | 0.471 | 0.165 | 0.114 | – | – | – |
| AGAUGCUCGAGUCGACAUGAGGAUCACCCAUGUACAGUUAAUGAGGAUAUCUGAGACAAAUAGUAGGAGAAGGCGUGAACAUGA [Ex NG3 #11] (Eterna round: R96, puzzle: Exclusion NG 3) | 0.191 | 0.0686 | 0.0909 | – | – | – |
| AGUAAGCUAGGAUAUGCUUUGGGAAAGCAUUCCUUCGAUAAACUUGAGGAUCACCCAAGUAGAAGGAGCUUACC [salish99_ex2_r4_002] (Eterna round: R97, puzzle: Exclusion 2) | 0.0134 | – | 0.0124 | – | – | – |
| AAAAUGUGAGGAUAUCCAAUAUAUGACAUGAGGAUCACCCAUGUUUCCACUCGUACCUCCGGAGAAGGCACUAAAA [Ex5 #42] (Eterna round: R97, puzzle: Exclusion 5) | 0.0219 | – | 0.029 | – | – | – |
